From the NTF2 design screens of Basanta et al. (2020) come the findings set out here.

The nature of the series: protease stability score; higher = more stable; yeast display proteolysis, trypsin and chymotrypsin.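 Also: relative to predicted unfolded state with 0 unfolded-like and 1 meaning tenfold more protease.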
In turn, “SEDKEMADWAIEIWVKSIRTGDEHTQLHLVDPHYREDVGDKEIHGRDELRRHMHEARVDEFRHKIDRMRTQGNKVHLDGIFQMKIRIDGKVDHIEFHSRLVVEKVDGRWLVKSLHIN” showed a protease stability score of 1.21.
With “SEDKHMLELALKLLKDSWKTGDEHLSERLMDPHVRLEQGDKEFHGREASQLWFRQIDHVEDMHVHRIRMINGKAYMDVHVVGNVNGKHVEFHQHIVFHKVNGRWIVESVVDS”, the protease stability score was determined as 1.26.
“SEDKKATNEASEIIIRLLKTGDEHLANHYIDPNVRMIFENRDVHGRETFEEWMRRVDHFHHYDVRHVHTQGDKINIDSEHNIHINGQEEIKDVYWISTKIDGKWILKSIEVR” showed a protease stability score of 1.28.
Sequence “SEDKKTLEHYFRELMHVLQTGDETEFVKLLDPDARLIIGDKSDHGREEVSRSLLEFQRILGIDHLEFRHTHLDIQGDKITIILQVRMKVNGREHHSRLIFVAEKVNGRWVLRSVIFEIH” displayed a protease stability score of 2.18.
“SEDKNAVHEIVERFLKAMLTGDEHILKTLLDPHVRLHIGDKSRVGMERVIHELIHIRIHELRVESMEMRLWDGRAEVHVFGEVRQRVDGQERNITTSIILHIEKIDGRWHLTQLQFIIS”: the protease stability score was determined as 2.53.
“SEDMERAESFHREWLEFSRTGDEDTLRSLLDPNARLRYGDKEYHGMDSLSRVDRELRVHDSRVHDLRIIDGRVHMDVDLDGTYNGKRVLLHTHFVVEKIDGRWILRSVHIH” yielded a protease stability score of 0.643.
On to “SEDNEHLRKFLEDFIRAMETGDWKMLFRLMDPNVRMEVNGRELHGREEAKKLIEEIISRYDHVHIEIKRAHSIGDKIEVWGISDVEIGDKKHEIPLLFILKKVDGKWIIHSIRSE”, for which the protease stability score was determined as 2.11.
In turn, “SEDNEIIHEMVQLFVDLFFTGDWEMLLSLFDPNVRMIVNGKTIHGRENIAHEVREFLERFKNVRFRDATIEHYSWQGDKLHAQIHIEGEINGRDRHSNVHIHITKIDGKWLITRIEVR” registered a protease stability score of 2.39.
For the sequence “SEDQEAMDRAIKIFEEIVDTGNERLSRENMDPRTRIVFEGVHLHGREEAVRHHRELWKRVDVMEMRTEDYRFFDGRVHQTTRLHLNYNGREETYETRFLVEKVNGKWFIKSIIIV”, the protease stability score was determined as 0.272.
Take “SEDQEEAEHVFEQWIRVLTTGDEETAHKMADPNTRMHFNGKDIHGMDTIAKEFHDLGITLQSIRMRHVERQGDKIHIHSRRTFEVNGVHLNTEVHHSLVKIDGRWTFQHTYVH”: the protease stability score is 0.086.
Turning to “SEDQEESEKFLKDLIRVILTGNEESLMKLADPHARFHIGDKTYIGWDKWVRMLSERVRDLGIRIEIRVHDFHVYNGVAENDHRHHVHFENHEYNHIMILHDDKINGKWTIRTLVIK”, the protease stability score worked out at 1.13.
As for “SEDQEIAVKLLHEMMEALRTGDEDYLRRLFDPNMRFNQGDKTHHGMDWVHSFLRRYDYFEVRHVRVHHVEVQGEKIIIDGRLEGSIRVDGVLQENEISVIFIIIKINGKWFVQTIRFN”, the protease stability score was 1.21.
Consider “SEDQEMSDHASSLLLHTMETGDFRLLHEFLDPNTRVSVNGRDVIGRDETVRHMIEHIKILGVSKVEARLHDVKLINGVAENDVEIDFNGRRIRVWWFVEKINGRWVITHMRVL”, for which the protease stability score came out at 1.47.
“SEDQEVAEKDLEIYSRAITTGNEHELKHLLDPNYKLIVNGQEYHGWETLRHYWKHLRVESVEFEIRSFDSQGDKLHIDGIIILHGEVDGRHTELFEDVHIRAHKINGRWHNKEVNIR” gave a protease stability score of 0.897.
For “SEDQHDAEWALRLFVRLHETGDFEEIYRNADPNMRWFVNGVDSHGRENASKLLHKLMDDLGIDHVQIEHVELRVQGEKIIVHMRVTQVINGREVDSRIEVHMEKFDGKWELKHVELRIH” the value was 1.31; for “SEDQHELTTLLEHLLRIHRTGDFHTLERLMDPNTWTLVDGVWFVGREAVEYSNKLIKFTKRIEIDHFEIQGEKATIHGTYHSHYNGREFHIHVTTYYQKINGRWVLHSIEFR”, 1.38.
For “SEDQKFFEELVRLMYEYSLTGDWELSERLLDPNALIDIDGVEFHGREIFVESMRHIRLDHIEIRHVESINGRIHAKTEVDGTVNGQRRRRDVEIHLLKVNGRWYIRRVNFK” the value was 2.45; for “SEDQREIKDFFKILSKALTTGDEEITSAMMDPHVRMDYNGKEHHGRDFLTELMKRADHWEHRLEVRSVRIIGDKVDVEGHMILHILIGDKEIRVRVDLDIELWKVDGRWIVKEITIK”, 1.04; for “SEDREEYHELLKRMIHALMTGDWRDFEKLFDPNARLEVNGQIFHGREDVVKWLRDVLKRYDHIEHFRIRTEEYQGDKIIMDGELHKVINGQHIVTRVRIEVWVVDGRLKRRSEREE”, 1.51.
The sequence “SEDREFAEKMLRIVSDLENTGDEEKARHLLDPNVRSVIDGQDLIGWHLRRHWLHELRIKSHRVDVHDIHVYNGQIEFNVREDGNIVVNGVEIRIELRTKMTFRKFDGQWYVKSIEIK” came in with a protease stability score of 1.45.
In turn, “SEDREFMKTDLERWRHDLLTGDEESSHRLADPHVRVYIGDKEFIGREELRRVLREFIERFKGARIEVRLRSLHLIDGRMHIDTEWHIHVGEKHIMLDIKINQDKVNGRWELRNEVIS” came in with a protease stability score of 1.11.
For “SEDRENFHRFWKELLRYYLTGDEDALTRMFDPNAQMIYGDKHYHGREVLEFIHHQVDVFRSVEIESSRSINGVVIIHVRLNGEYNGQQENTEFTLVFEKINGRWRIKQVRSE” the value was 1.11; for “SEDRENIYRQIREVEEALKTGDEELMLHLMDPHVRIDINGRHNHGREEMVRFIREIRISLKHVDIHHVQDDENELIVHVRVNLVIEVDGKRREEEDNALFIFVKIDGRWVFSIIRIQ”, 1.76.
For “SEDREQVHRFFEQFSRDTLTGNEERNFEMADPHTRFDIDGRIIIGRDIILHHWKEEMRKHGAEMKIHIHHVRVQGDKATVDLRVEIHINGRTYEYKVVMIVEKIDGRWVLTQIKYE” the value was 0.365.
For “SEDRESAKWFVEMELELFLTGDFEKRLHLADPNAKIRIEINGRKHSTHGMREFLEHLLRLGIDVSHVDHIQVENYNGKLEMNLNLDIRIDGQRRHVEIHIIVDKFDGRWVLRELKVNIR” the value was 0.642; for “SEDRKFIKEMFEETFRRWETGDEDHIRRYVDPHTKLRILIDGREHTHHGREEFTKMMIDLSEQLGIKHLHIENLHIQGDKAELRGREEVGDKDEHVTIIAHKVNGQWTIETLHIEVR”, -0.376; for “SEDRKLAEILVKITMDILHTGDEEEWLKLLDPHTRIDFDGRDMHGREFFMKVFRDWGIDNIEVHLHDVKVQGDFLDINVSVHINGRKIDHRLIVEKIDGRWIIREFEVR”, 1.58.
“SEDRQIAEQIVEDLSTSTVTGDWRLILELLDPDTRIVVDGVDLHGREEFLRFFERIDHMRARRTRLSDFRSYGDKVEADVDIKMEYIVDGRNITERFKERFIIIKVNGRWIVKEWRLK” gave a protease stability score of 2.61.
For “SEDSEDAKKVVEISIHTVVTGDEHTNTRLFDPHVRIEIGDKEIHGREKFVHIIRHWRMEAHVEVDEVKRQGDKVRVDGHVRIILDINGRKIDIESQVDVNILKVNGRWLIESEHIH” the value was 1.08; for “SEDSEHAVEYMRLLRESMHTGDEKSWEDMMDPNMRILINGKDLIGWEEFSEFLRRFDHWEIRHVEIKDTKLINGRIELKGRMDIRLTINGKETSHVRNVHILSLKVNGRWILKSIEIE”, 1.34.
For “SEDSEQALTIIEQLTKNLATGDEDTAEELVDPNVRINIGDKTIHGMHELSRFLLELRSEHRSHIRDVRVQGDKINVEGEDEIIIQVNGQEIRIRKHVHWIIDKIDGVWFVRSVNIH” the value was 1.89; for “SEDSERAREVWEDLFKAILTGDEDLLRELVDPNVRLEIGDKELVGWEHMIYHLRDHLRRYKNMRLELRIRHVEHQGDKLHLNVLLILIQGDKRIEFEVEVLIEKVNGRWILKEIRIK”, 1.38; for “SEDTATAHLMVEYFTKSVHTGDEHTTKRQVDPTMRFDFNGKQIIGREKWKEDLLHWRMETTSHVDDFKLQGDKVRSRTTLHMILHFDGVVYHNTYDTEIIYHKVDGRWYFTEFHVR”, 1.14.
For “SEDTEKIRKFEELLIRLLETGDFDTLTRLLDPHVRYVYNGQDFHGWEFLLHYLRELGVKHFHFRDFRIQGDWAHIDSEVVVGDKHYKTRIVLLKFDGRWRLHMIEVV” the value was 2.44; for “SEDTEMVRIVLEHIEHVWRTGDEHTLRELMDPHVRMDINGREHHGREHVSEIFEQEMRELGADHFRIDHKHVRIINGRIILYLRVKTHIGEKRLDIEIIIILSKVDGRWFIKEISIRHI”, 1.11; for “SEDTRIAEELWRIMMDADRTGDEDRSKEMIDPNTQFIFNGRDVIGREVWAELFLRIDHIHLRDVEIHDSEVFNGKIHIDGHVDQEIRIGDKTLVEKVKVELIVLKINGKWLLKEVRFH”, 1.35.
In turn, “SEDTRLKEEFLRRVLESEHTGDFESLQEMLDPNTRIEFNGQELIGREEAERILHQARIHDVKIKSMRLIDGRIELNGVLDGNFNGRRRHLEVRIYITKIDGRWVLESIEIE” displayed a protease stability score of 1.49.
For “SEDVEFIVRFIERFWHLLLTGNEEEFEKLLDPHVRIEINGVNLVGREEVTDWFKHIRIDDMRMIFRHSSVVDGRVNVIGALRRDGHINGQRVTEERDTRLHLYKVNGQWFLTEIELH” the value was 1.5.
Sequence “SEDVERVRHSIIVWLHILLTGDEETISKYADPNARYVQGDKHHHGMEYIAIKIRELRWSVTMEIEHMHVVDGRAHIEGRLILRIHINGKEDVEDHELELHMIKVDGKWILHEIKIK” had a protease stability score of 1.59.
For “SEDVRDAHEMARIFLEVFRTGNEHHHERMMDPHARVRFDGVDHHGREESTKLLLELWRRVDHLHMDITDLRVQGDKVEVHIRLENRYNGRTHIIHVHLVMIKVDGRWVIREIHFD” the value was 0.752.
For “SEEDDDSREVLELFVRLMVTGDFHELAELLDPNVRTHINGKERVGREQMIKILKRLFDEWGVDRVIVHVKHIDVQGEKAHMDGTLIYGDKMQKSHVTLIYVNGRLERIHIELN” the value was 1.13; for “SEEDDQAEEFARKMITDFLTGNWKKMMDLFDPNVRLRWHVDGRDKHHIGREVVSEILRRYVEEIRIHSISIESVENYDGVSIVHSHYEWEVNGQKRETHVLLEFVIINGRARSISIHIH”, 1.11.
For “SEEDEADHELVQWMLEILQTGDEETFRTFADPSTRHISHIDGKEMHIHGRESASEVLLTTWKELGVDVFHLHQYRYFNGRVDIEFELHQGNKTIELHFHYQIINGRLKRIEIRVHHE” the value was 1.14; for “SEEDEDAMRSAEFLVKKLNTGDEDWYQHLFDPHTKLEIGNFTSHGMHVSLKQWREMGADHVHVQDIDVFDGRVHVRTHIHVNGQTVEVLIILVKVNGRWIVERIRMK”, 0.66.
“SEEDEDKELVRHLVEKLIKTGDETLMHEMFDPNARLRVNGRDFHGRESIVKAMLEFLRWLGVDHIHFEHIIVRIVDGRIEINVTVRVEQGDKRTELRIHTRATKIDGKWILTSLTLDVR” registered a protease stability score of 1.13.
Consider “SEEDEDVKRILELWLRSEETGDEHLSLELADPNTRKHQGDKEFHGMSKLVQLLAELYRRADHSHFIEKRVEVFENHVRIVGHFVLIVGEFRIVVDILILARKIDGRWILTRVNWR”, for which the protease stability score came out at 1.51.
For “SEEDEEAERMVRALNHKFRTGDWELSEKLFDPNTKLEIIINGKHIDIHGREMVIRLMEDELRRFDHVDIEIKRVDSQGEKANNDGVLVIKQGDFEVRHRFTLIIHVVNGVIKKISILFH” the value was 0.996.
